Measurements as given in article PMC3795957 (Nature biotechnology, 2013).
Where no end group is shown, it is not given here.

Target: T1, wild-type (WT Asp) peptide GEKKGNYVVTDH (also: biotin (site not given here))
T1 chain: GEKKGNYVVTDH
Assay: SPR

B1: humanized version of the 1i8i Fab (Parent) (Fab, V domains shown)
VH: EVQLVESGGGLVQPGGSLRLSCVTSGFTFRKFGMSWVRQAPGKGLEWVASISTGGYNTYYSDSVKGRFTISRDNSKNTLYLQMNSLRAEDTAVYYCTRGYSSTSYAMDYWGQGTLVTVSS
VL: DIVLTQSPATLSLSPGERATLSCMTSTDIDDDMNWYQQKPGQAPRLLISEGNTLRPGVPARFSGSGSGTDFTLTISSLEPEDFAVYYCLQSFNVPLTFGQGTKVEIK
Binder B1 has a kon of 338000 M⁻¹ s⁻¹.
